Assay results taken from patent US20160297854A1 (Novartis, published 2016).

Molecular target: T1, human VEGF (human, UniProt P15692 207-395, biotinylated)
T1 construct: also called hVEGF; hVEGF-biotin
T1 sequence: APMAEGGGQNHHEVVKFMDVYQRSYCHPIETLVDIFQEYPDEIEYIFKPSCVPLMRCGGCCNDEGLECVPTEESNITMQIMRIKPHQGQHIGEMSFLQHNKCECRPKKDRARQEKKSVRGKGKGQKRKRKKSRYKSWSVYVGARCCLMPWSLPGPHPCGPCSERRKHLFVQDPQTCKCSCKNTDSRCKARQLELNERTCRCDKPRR
Assay: SPR (Biacore), ligand hVEGF-biotin, 25 C

B1: NVS1j (Fab)
heavy: EVQLVESGGGLVQPGGSLRLSCTASGFSLTDYYYMTWVRQAPGKGLEWVGFIDPDDDPYYATWAKGRFTISRDNSKNTLYLQMNSLRAEDTAVYYCAGGDHNSGWGLDIWGQGTLVTVSSASTKGPSVFPLAPSSKSTSGGTAALGCLVKDYFPEPVTVSWNSGALTSGVHTFPAVLQSSGLYSLSSVVTVPSSSLGTQTYICNVNHKPSNTKVDKRVEPKSCGS
light: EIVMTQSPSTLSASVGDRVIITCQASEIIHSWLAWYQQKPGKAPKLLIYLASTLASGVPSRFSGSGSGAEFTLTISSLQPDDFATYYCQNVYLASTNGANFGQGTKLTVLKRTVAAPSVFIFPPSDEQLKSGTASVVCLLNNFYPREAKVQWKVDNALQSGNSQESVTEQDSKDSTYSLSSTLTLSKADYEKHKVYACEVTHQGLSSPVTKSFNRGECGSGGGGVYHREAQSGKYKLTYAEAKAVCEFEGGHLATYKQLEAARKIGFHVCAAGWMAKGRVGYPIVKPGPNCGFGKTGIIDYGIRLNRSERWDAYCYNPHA
notes: Tag on the C-terminus of the light chain of NVS4; The heavy chain number is printed as '[9]215'
  Kd: 5.64 pM
  koff: 0.000172 s⁻¹
  kon: 3.05e+07 M⁻¹ s⁻¹
